According to US11198713B2, “Agents modulating beta-catenin functions and methods thereof” (FOG PHARMACEUTICALS, INC., priority 2017, dated 2021):
Numbered stars: 1 amine (or outer) side, 2 acyl side, 3 side chain; on linkers, the order of the positions; unused ones are H or OH. Bridge positions count the residues as written; N and C are the ends. Square brackets hold non-standard residues; d marks the D form. Primed or numbered codes have the meaning given here. MB(10) = Monomer B = PyrS, pyrrolidine stapling residue with allyl carbamate, (S)-3-amino-1-(allyloxycarbonyl)pyrrolidine-3-carboxylic acid, C=CCOC(=O)N1CC[C@@](N[*:1])(C(=O)[*:2])C1; MB(4) = Monomer B (PyrS), N-Alloc pyrrolidine stapling residue, (S)-3-amino-1-(allyloxycarbonyl)pyrrolidine-3-carboxylic acid, C=CCOC(=O)N1CC[C@@](N[*:1])(C(=O)[*:2])C1; MB(6) = Monomer B (PyrS), N-Alloc pyrrolidine stapling residue, forms carbamate staple with R8 by olefin metathesis; R7″ = stapling residue, (R)-2-(6-heptenyl)alanine (drawn only), C=CCCCCC[C@@](C)(N[*:1])C(=O)[*:2]; MB = Monomer B = PyrS, Alloc-pyrrolidine stapling residue (allyl carbamate on pyrrolidine N); Tyr(OMe) = O-methyl tyrosine (source code MeY), COc1ccc(C[C@H](N[*:1])C(=O)[*:2])cc1; MB(13) = Monomer B (PyrS), pyrrolidine stapling residue bearing Alloc; R7 = (R)-2-(6-heptenyl)alanine, C=CCCCCC[C@@](C)(N[*:1])C(=O)[*:2]; MB(5) = Monomer B (PyrS), N-Alloc pyrrolidine stapling residue; αMeW = C[C@](N)(Cc1c[nH]c2ccccc12)C(=O)O; Phe(4-F) = N[C@@H](Cc1ccc(F)cc1)C(=O)O; Phe(4-Me) = Cc1ccc(C[C@H](N)C(=O)O)cc1; 1Nal = N[C@@H](Cc1cccc2ccccc12)C(=O)O; Met(O2) = CS(=O)(=O)CC[C@H](N)C(=O)O; Ala(cPr) = N[C@@H](CC1CC1)C(=O)O; 2Pal = N[C@@H](Cc1ccccn1)C(=O)O; 3Pal = N[C@@H](Cc1cccnc1)C(=O)O; 4Pal = N[C@@H](Cc1ccncc1)C(=O)O; R8 = C=CCCCCCC[C@@](C)(N)C(=O)O; 2Thi = N[C@@H](Cc1cccs1)C(=O)O; αMeL = CC(C)C[C@](C)(N)C(=O)O; cpa = 3-cyclopropylalanine; Aib = CC(C)(N)C(=O)O

T1: full-length beta-catenin (UniProt P35222 2-781, limits assumed)
T1 construct: mature; also called full-length ß-Catenin; β-catenin
T1 sequence (looked up): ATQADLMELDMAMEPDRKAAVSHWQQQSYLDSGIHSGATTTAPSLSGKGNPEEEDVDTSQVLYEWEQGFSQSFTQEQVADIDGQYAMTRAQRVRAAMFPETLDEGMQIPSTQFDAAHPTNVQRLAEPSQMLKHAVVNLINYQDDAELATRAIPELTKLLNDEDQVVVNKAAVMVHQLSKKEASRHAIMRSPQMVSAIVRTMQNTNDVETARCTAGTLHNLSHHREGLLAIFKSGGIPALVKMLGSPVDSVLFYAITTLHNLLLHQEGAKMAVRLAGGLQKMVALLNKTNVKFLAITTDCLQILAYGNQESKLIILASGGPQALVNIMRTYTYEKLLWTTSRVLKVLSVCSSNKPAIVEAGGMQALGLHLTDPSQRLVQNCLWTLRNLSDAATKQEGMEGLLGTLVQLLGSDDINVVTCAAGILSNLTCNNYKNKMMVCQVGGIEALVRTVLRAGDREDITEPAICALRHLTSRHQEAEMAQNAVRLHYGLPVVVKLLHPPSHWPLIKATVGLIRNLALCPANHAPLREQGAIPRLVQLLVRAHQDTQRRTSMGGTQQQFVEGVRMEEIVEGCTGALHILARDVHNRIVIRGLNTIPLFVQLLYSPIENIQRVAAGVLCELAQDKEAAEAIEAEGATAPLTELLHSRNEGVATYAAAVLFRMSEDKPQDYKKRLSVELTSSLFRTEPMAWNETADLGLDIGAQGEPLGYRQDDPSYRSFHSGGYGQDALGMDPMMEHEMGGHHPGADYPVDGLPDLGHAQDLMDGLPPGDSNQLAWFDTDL

B1: FP0571c Isomer 1 (peptide)
peptide: Ac-A[R8]ILDA[2Pal]I[MB(6)][2Thi]VW-NH2
modifications: staple 2-9; not fully specified; printed as Ac-A-R8-I-L-D-A-2pyr-I-MB-thi-V-W-NH2
B2: FP0571c Isomer 2 (peptide)
peptide: Ac-A[R8]ILDA[2Pal]I[MB(6)][2Thi]VW-NH2
modifications: staple 2-9; not fully specified; printed as Ac-A-R8-I-L-D-A-2pyr-I-MB-thi-V-W-NH2
B3: FP0572c Isomer 1 (peptide)
peptide: Ac-A[R8]ILDA[2Pal]I[MB(5)][2Pal]VW-NH2
modifications: staple 2-9; not fully specified; printed as Ac-A-R8-I-L-D-A-2pyr-I-MB-2pyr-V-W-NH2
B4: FP0573c Isomer 1 (peptide)
peptide: Ac-A[R8]ILDA[2Pal]I[MB(5)][3Pal]VW-NH2
modifications: staple 2-9; not fully specified; printed as Ac-A-R8-I-L-D-A-2pyr-I-MB-3pyr-V-W-NH2
B5: FP0573c Isomer 2 (peptide)
peptide: Ac-A[R8]ILDA[2Pal]I[MB(5)][3Pal]VW-NH2
modifications: staple 2-9; not fully specified; printed as Ac-A-R8-I-L-D-A-2pyr-I-MB-3pyr-V-W-NH2
B6: FP0574c Isomer 1 (peptide)
peptide: Ac-A[R8]ILDA[2Pal]I[MB(5)][Ala(cPr)]VW-NH2
modifications: staple 2-9; not fully specified; printed as Ac-A-R8-I-L-D-A-2pyr-I-MB-cpa-V-W-NH2
B7: FP0574c Isomer 2 (peptide)
peptide: Ac-A[R8]ILDA[2Pal]I[MB(4)][cpa]VW-NH2
modifications: staple 2-9; not fully specified; printed as Ac-A-R8-I-L-D-A-2pyr-I-MB-cpa-V-W-NH2
B8: FP0575c Isomer 1 (peptide)
peptide: Ac-A[R8]ILDA[2Pal]I[MB(4)][Tyr(OMe)]VW-NH2
modifications: staple 2-9; not fully specified; printed as Ac-A-R8-I-L-D-A-2pyr-I-MB-MeY-V-W-NH2
B9: FP0575c Isomer 2 (peptide)
peptide: Ac-A[R8]ILDA[2Pal]I[MB(4)][Tyr(OMe)]VW-NH2
modifications: staple 2-9; not fully specified; printed as Ac-A-R8-I-L-D-A-2pyr-I-MB-MeY-V-W-NH2
B10: FP0576c Isomer 1 (peptide)
peptide: Ac-A[R8]ILDA[2Pal]I[MB(4)][Phe(4-F)]VW-NH2
modifications: staple 2-9; not fully specified; printed as Ac-A-R8-I-L-D-A-2pyr-I-MB-4FF-V-W-NH2
B11: FP0576c Isomer 2 (peptide)
peptide: Ac-A[R8]ILDA[2Pal]I[MB(4)][Phe(4-F)]VW-NH2
modifications: staple 2-9; not fully specified; printed as Ac-A-R8-I-L-D-A-2pyr-I-MB-4FF-V-W-NH2
B12: FP0577c Isomer 1 (peptide)
peptide: Ac-A[R8]ILDA[2Pal]I[MB(4)][1Nal]VW-NH2
modifications: staple 2-9; not fully specified; printed as Ac-A-R8-I-L-D-A-2pyr-I-MB-1NapA-V-W-NH2
B13: FP0578c Isomer 1 (peptide)
peptide: Ac-A[R8]ILDA[2Pal]I[MB(4)][Phe(4-Me)]VW-NH2
modifications: staple 2-9; not fully specified; printed as Ac-A-R8-I-L-D-A-2pyr-I-MB-4MeF-V-W-NH2
B14: FP0578c Isomer 2 (peptide)
peptide: Ac-A[R8]ILDA[2Pal]I[MB(4)][Phe(4-Me)]VW-NH2
modifications: staple 2-9; not fully specified; printed as Ac-A-R8-I-L-D-A-2pyr-I-MB-4MeF-V-W-NH2
B15: FP0570c Isomer 1 (peptide)
peptide: Ac-A[R8]ILDA[2Pal]I[MB(6)][Aib]VW-NH2
modifications: staple 2-9; not fully specified; printed as Ac-A-R8-I-L-D-A-2pyr-I-MB-Aib-V-W-NH2
B16: FP0570c Isomer 2 (peptide)
peptide: Ac-A[R8]ILDA[2Pal]I[MB(6)][Aib]VW-NH2
modifications: staple 2-9; not fully specified; printed as Ac-A-R8-I-L-D-A-2pyr-I-MB-Aib-V-W-NH2
B17: FP0365c Isomer 1 (peptide)
peptide: AXILDAHIXAVW
modifications: not fully specified; Ac-A-R8-I-L-D-A-H-I-MB-1NapA-V-W-NH2; carbamate staple R8/MB
B18: FP0365c Isomer 2 (peptide)
peptide: AXILDAHIXAVW
modifications: not fully specified; Ac-A-R8-I-L-D-A-H-I-MB-1NapA-V-W-NH2; carbamate staple R8/MB
B19: FP0405c (peptide)
peptide: AXALDAHIXRVW
modifications: not fully specified; Ac-A-R8-A-L-D-A-H-I-MB-R-V-W-NH2; carbamate staple R8/MB
B20: FP0407c (peptide)
peptide: AXILAAHIXRVW
modifications: not fully specified; Ac-A-R8-I-L-A-A-H-I-MB-R-V-W-NH2; carbamate staple R8/MB
B21: FP0538c (peptide)
peptide: Ac-A[R8]ILDA[4Pal]I[MB(13)]RVW-NH2
modifications: staple 2-9
B22: FP0542c (peptide)
peptide: Ac-A[R8]ILDAHI[MB(10)]SVW-NH2
modifications: staple 2-9
B23: FP0629c (peptide)
peptide: Ac-A[R8]IL[Met(O2)]AHI[MB(5)]RVW-NH2
modifications: staple 2-9
B24: FP0633c (peptide)
peptide: Ac-A[R8]ILDAHI[MB(4)]R[αMeL]W-NH2
modifications: staple 2-9
B25: FP0217c Isomer 1 (peptide)
peptide: Ac-A[R8]ILDAHI[MB]RVW-NH2
modifications: staple 2-9; also: Isomer 1, staple olefin E/Z not assigned
notes: also called FPO217c Isomer 1
B26: FP0495a (peptide)
peptide: Ac-A[R7]ILDAHI[MD]RVW-NH2
modifications: staple 2-9; not fully specified; printed as Ac-A-R7-I-L-D-A-H-I-MD-R-V-W-NH2; also: amino staple R7/MD (-N(R')-, after CO2 extrusion from carbamate staple)
B27: FP0507c (peptide)
peptide: AXILDAHIXRVW
modifications: not fully specified; Ac-A-MI-I-L-D-A-H-I-S6-R-V-W-NH2; carbamate staple MI/S6
B28: FP0509a (peptide)
peptide: AXILDAHIXRVW
modifications: not fully specified; Ac-A-R4-I-L-D-A-H-I-MH-R-V-W-NH2; amino staple R4/MH
B29: FP0510a (peptide)
peptide: AXILDAHIXRVW
modifications: not fully specified; Ac-A-R5-I-L-D-A-H-I-MH-R-V-W-NH2; amino staple R5/MH
B30: FP0516a Isomer 2 (peptide)
peptide: Ac-A[R7″]ILDAHI[MA]RVW-NH2
modifications: staple 2-9; not fully specified; printed as Ac-A-R7-I-L-D-A-H-I-MA-R-V-W-NH2
B31: FP0596c (peptide)
peptide: AXILDAHIXRVW
modifications: not fully specified; Ac-A-MG-I-L-D-A-H-I-ME-R-V-W-NH2; carbamate staple MG/ME
B32: FP0631c (peptide)
peptide: Ac-A[R8]ILDAHI[MB(4)]RV[αMeW]-NH2
modifications: staple 2-9

Each binder was assayed against T1, full-length beta-catenin (assay: competition FP; NB = no binding detected).
Procedure: (§1) In some embodiments, a competition fluorescence polarization assay is used to assess binding of provided compounds to beta-catenin. In an exemplary procedure, solutions of provided compounds, e.g., provided stapled peptides, were prepared in a buffer (e.g., 50 mM Tris pH 8.0, 250 mM NaCl, 2% glycerol, 0.5 mM EDTA, 0.02% w/v sodium azide) using a 3-fold serial dilution from 5 µM. Probe solution (15 nM full-length ß-Catenin, 20 nM FITC labeled peptide in buffer) was prepared and incubated for a period of time, e.g., 5 minutes, and the a volume, e.g., 40 µL per well plated in suitable plate, e.g., a black polystyrene 384-well plate (Corning). Equal volume of the serial diluted peptide was added to the plate and incubated protected from light for 15 minutes prior to read. Reads were performed on a Spectramax M5 (Molecular Devices) in duplicate. Suitable probe was FITC-PEG1-PQ-S5-ILD-S5-HVRRVWR (SEQ ID NO: 1) (hydrocarbon staple formed by two S5 via olefin metathesis) and/or FITC-bA-PQ-S5-ILD-S5-HVRRVWR (SEQ ID NO: 3) (hydrocarbon staple formed by two S5 via olefin metathesis). […] Another peptide, FPO217c (Ac-AR_8ILDAHIM$B5$RVW (SEQ ID NO: 280), with N-terminal proline removed and valine replaced with isoleucine compared to FP0025c) was prepared.
B1: no binding.
B2: no binding.
B3: no binding.
B4: no binding.
B5: no binding.
B6: no binding.
B7: no binding.
B8: no binding.
B9: no binding.
B10: no binding.
B11: no binding.
B12: no binding.
B13: no binding.
B14: no binding.
B15: no binding.
B16: no binding.

Each binder was assayed against T1, full-length beta-catenin (assay: competition FP, grade of FP EC50 (+: 500-5000 nM)).
Procedure: as §1
B17 was tested, and the “FP EC50” value was 500 to 5000 nM.
With B18 the “FP EC50” value was 500 to 5000 nM.
With B19 the “FP EC50” value was 500 to 5000 nM.
B20 was tested, and the “FP EC50” value was 500 to 5000 nM.
For B21, the “FP EC50” value was 500 to 5000 nM.
In the case of B22, the “FP EC50” value is reported as 500 to 5000 nM.
With B23 the “FP EC50” value was 500 to 5000 nM.
In the case of B24, the “FP EC50” value is reported as 500 to 5000 nM.
B25 was tested, and the “FP EC50” value was 500 to 5000 nM.
B26 was tested, and the “FP EC50” value was 500 to 5000 nM.
B27 was tested, and the “FP EC50” value was 500 to 5000 nM.
In the case of B28, the “FP EC50” value is reported as 500 to 5000 nM.
With B29 the “FP EC50” value was 500 to 5000 nM.
B30 was tested, and the “FP EC50” value was 500 to 5000 nM.
For B31, the “FP EC50” value was 500 to 5000 nM.
For B32, the “FP EC50” value was 500 to 5000 nM.
